B1: CE115HA000 S52cK one-arm antibody (antibody, human IgG1, kappa, L234A L235A, N297A, name in Kabat numbering)
heavy: QVQLVESGGGVVQPGRSLRLSCAASGFTFSNAWMHWVRQAPGKGLEWVAQIKAKKNNYATYYAESVKGRFTISRDDSKNSLYLQMNSLKTEDTAVYYCRYVHYGAYYGVDAWGQGTTVTVSSASTKGPSVFPLAPSSKSTSGGTAALGCLVKDYFPEPVTVSWNSGALTSGVHTFPAVLQSSGLYSLSSVVTVPSSSLGTQTYICNVNHKPSNTKVDKKVEPKSCDKTHTCPPCPAPEAAGGPSVFLFPPKPKDTLMISRTPEVTCVVVDVSHEDPEVKFNWYVDGVEVHNAKTKPREEQYASTYRVVSVLTVLHQDWLNGKEYKCKVSNKALPAPIEKTISKAKGQPREPQVYTLPPSRCELTKNQVSLSCAVKGFYPSDIAVEWESNGQPENNYKTTPPVLDSDGSFFLVSKLTVDKSRWQQGNVFSCSVMHEALHNHYTQKSLSLSPDYKDDDDK
chain: EPKSSDKTHTCPPCPAPELLGGPSVFLFPPKPKDTLMISRTPEVTCVVVDVSHEDPEVKFNWYVDGVEVHNAKTKPREEQYNSTYRVVSVLTVLHQDWLNGKEYKCKVSNKALPAPIEKTISKAKGQPREPQVCTLPPSRDELTKNQVSLWCLVKGFYPSDIAVEWESNGQPENNYKTTPPVLDSDGSFFLYSKLTVDKSRWQQGNVFSCSVMHEALHNRYTQKSLSLSP
light: DIVMTQSPLSLPVTPGEPASISCRSSQSLVHSNRNTYLHWYQQKPGQAPRLLIYKVSNRFSGVPDRFSGSGSGTDFTLKISRVEAEDVGVYYCGQGTQVPYTFGQGTKLEIKRTVAAPSVFIFPPSDEQLKSGTASVVCLLNNFYPREAKVQWKVDNALQSGNSQESVTEQDSKDSTYSLSSTLTLSKADYEKHKVYACEVTHQGLSSPVTKSFNRGEC
B2: CE115HA000 S74P one-arm antibody (antibody, human IgG1, kappa, L234A L235A, N297A, name in Kabat numbering)
heavy: B1 heavy with K55S, S77P
chain: B1 chain
light: B1 light
B3: CE115HA000 S52cY one-arm antibody (antibody, human IgG1, kappa, L234A L235A, N297A, name in Kabat numbering)
heavy: B1 heavy with K55Y
chain: B1 chain
light: B1 light
B4: CE115HA000 T57K one-arm antibody (antibody, human IgG1, kappa, L234A L235A, N297A, name in Kabat numbering)
heavy: B1 heavy with K55S, T60K
chain: B1 chain
light: B1 light
B5: CE115HA000 T28S one-arm antibody (antibody, human IgG1, kappa, L234A L235A, N297A, name in Kabat numbering)
heavy: B1 heavy with T28S, K55S
chain: B1 chain
light: B1 light
B6: CE115HA000 S52cL one-arm antibody (antibody, human IgG1, kappa, L234A L235A, N297A, name in Kabat numbering)
heavy: B1 heavy with K55L
chain: B1 chain
light: B1 light
B7: CE115HA000 S62P one-arm antibody (antibody, human IgG1, kappa, L234A L235A, N297A, name in Kabat numbering)
heavy: B1 heavy with K55S, S65P
chain: B1 chain
light: B1 light
B8: CE115HA000 V11L one-arm antibody (antibody, human IgG1, kappa, L234A L235A, N297A, name in Kabat numbering)
heavy: B1 heavy with V11L, K55S
chain: B1 chain
light: B1 light
B9: CE115HA000 S52cV one-arm antibody (antibody, human IgG1, kappa, L234A L235A, N297A, name in Kabat numbering)
heavy: B1 heavy with K55V
chain: B1 chain
light: B1 light
B10: CE115HA000 S77T one-arm antibody (antibody, human IgG1, kappa, L234A L235A, N297A, name in Kabat numbering)
heavy: B1 heavy with K55S, S80T
chain: B1 chain
light: B1 light
B11: CE115HA000 T28D one-arm antibody (antibody, human IgG1, kappa, L234A L235A, N297A, name in Kabat numbering)
heavy: B1 heavy with T28D, K55S
chain: B1 chain
light: B1 light
B12: CE115HA000 V95A one-arm antibody (antibody, human IgG1, kappa, L234A L235A, N297A, name in Kabat numbering)
heavy: B1 heavy with K55S, V101A
chain: B1 chain
light: B1 light
B13: CE115HA000 T57I one-arm antibody (antibody, human IgG1, kappa, L234A L235A, N297A, name in Kabat numbering)
heavy: B1 heavy with K55S, T60I
chain: B1 chain
light: B1 light
B14: CE115HA000 S74A one-arm antibody (antibody, human IgG1, kappa, L234A L235A, N297A, name in Kabat numbering)
heavy: B1 heavy with K55S, S77A
chain: B1 chain
light: B1 light
B15: CE115HA000 S62D one-arm antibody (antibody, human IgG1, kappa, L234A L235A, N297A, name in Kabat numbering)
heavy: B1 heavy with K55S, S65D
chain: B1 chain
light: B1 light
B16: CE115HA000 S62E one-arm antibody (antibody, human IgG1, kappa, L234A L235A, N297A, name in Kabat numbering)
heavy: B1 heavy with K55S, S65E
chain: B1 chain
light: B1 light
B17: CE115HA000 T57A one-arm antibody (antibody, human IgG1, kappa, L234A L235A, N297A, name in Kabat numbering)
heavy: B1 heavy with K55S, T60A
chain: B1 chain
light: B1 light
B18: CE115HA000 V95D one-arm antibody (antibody, human IgG1, kappa, L234A L235A, N297A, name in Kabat numbering)
heavy: B1 heavy with K55S, V101D
chain: B1 chain
light: B1 light
B19: CE115HA000 S52cQ one-arm antibody (antibody, human IgG1, kappa, L234A L235A, N297A, name in Kabat numbering)
heavy: B1 heavy with K55Q
chain: B1 chain
light: B1 light
B20: CE115HA000 T57N one-arm antibody (antibody, human IgG1, kappa, L234A L235A, N297A, name in Kabat numbering)
heavy: B1 heavy with K55S, T60N
chain: B1 chain
light: B1 light
B21: CE115HA000 S62K one-arm antibody (antibody, human IgG1, kappa, L234A L235A, N297A, name in Kabat numbering)
heavy: B1 heavy with K55S, S65K
chain: B1 chain
light: B1 light

Where a chain is given by its changes, count along the chain named. Numbers in names are those of the source.
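Note: homodimer attached to the sensor surface via amine coupling, HBS-EP+ used as running buffer during binding runs.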

The target of this assay is T1, CD3 epsilon homodimer protein (UniProt P07766 23-126).
T1 construct: immobilized on Sensor chip CM4 by amine coupling; also called CD3 (CD3 epsilon)
T1 sequence (P07766 23-126): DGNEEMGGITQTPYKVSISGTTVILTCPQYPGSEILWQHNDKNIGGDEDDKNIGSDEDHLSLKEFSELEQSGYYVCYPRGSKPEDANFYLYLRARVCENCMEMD
Put plainly: SPR (Biacore T200), CD3 epsilon homodimer on CM4 chip, one-arm antibody as analyte, 25 C. (In general: In SPR one partner is held on a chip, and binding of the other changes the refractive index at the surface.)
As for B1, the “ratio of amounts bound (altered form / CE115HA000)” value turned out to be 1.19.

On to B2, for which the “ratio of amounts bound (altered form / CE115HA000)” value turned out to be 0.91.

In the case of B3, the “ratio of amounts bound (altered form / CE115HA000)” value worked out at 1.11.

Turning to B4, the “ratio of amounts bound (altered form / CE115HA000)” value stood at 1.32.

B5: the “ratio of amounts bound (altered form / CE115HA000)” value worked out at 0.91.

Turning to B6, the “ratio of amounts bound (altered form / CE115HA000)” value was 0.98.

As to B7, the “ratio of amounts bound (altered form / CE115HA000)” value came to 1.

B8: the “ratio of amounts bound (altered form / CE115HA000)” value was 1.

B9: the “ratio of amounts bound (altered form / CE115HA000)” value is 0.93.

For B10, the “ratio of amounts bound (altered form / CE115HA000)” value was determined as 0.9.

Turning to B11, the “ratio of amounts bound (altered form / CE115HA000)” value turned out to be 0.56.

For B12, the “ratio of amounts bound (altered form / CE115HA000)” value worked out at 0.11.

As to B13, the “ratio of amounts bound (altered form / CE115HA000)” value was found to be 0.61.

As to B14, the “ratio of amounts bound (altered form / CE115HA000)” value is 1.05.

Take B15: the “ratio of amounts bound (altered form / CE115HA000)” value came to 0.92.

As for B16, the “ratio of amounts bound (altered form / CE115HA000)” value came to 0.92.

For the molecule B17, the “ratio of amounts bound (altered form / CE115HA000)” value was determined as 0.98.

In the case of B18, the “ratio of amounts bound (altered form / CE115HA000)” value was determined as 0.24.

On to B19, for which the “ratio of amounts bound (altered form / CE115HA000)” value turned out to be 1.04.

As to B20, the “ratio of amounts bound (altered form / CE115HA000)” value was found to be 0.97.

Consider B21, for which the “ratio of amounts bound (altered form / CE115HA000)” value was 1.19.

The values above are taken from patent US20210388087A1 (Chugai, published 2021).
